Assay results from article PMC3720700, “Structure of the SCAN Domain of Human Paternally Expressed Gene 3 Protein” (PLoS ONE, 2013).

B1: SCAN domain of human paternally expressed gene 3 protein (PEG3), amino acids 40-130 (domain or fragment)
chain: GHMTDSEFFHQRFRNLIYVEFVGPRKTLIKLRNLCLDWLQPETRTKEEIIELLVLEQYLTIIPEKLKPWVRAKKPENCEKLVTLLENYKEMYQP
notes: three non-native residues (Gly-His-Met) left at the N-terminus after TEV digestion; SCAN domain of human PEG3, amino acids 40-130 of UniProt Q9GZU2; theoretical mass of the construct 11,434 Da; Homodimer by gel filtration and in the crystal; The gene was synthetic (GenScript), in a modified pET15b vector; also called PEG3-SCAN; PEG3-SCAN domain; source: E. coli Bl21 (DE3) Gold, purified (HisTrap, …)
B2: human Siah1 without the RING domain (amino acids 91-282) (domain or fragment, UniProt Q8IUQ4 91-282, looked up)
chain: ANSVLFPCKYASSGCEITLPHTEKADHEELCEFRPYSCPCPGASCKWQGSLDAVMPHLMHQHKSITTLQGEDIVFLATDINLPGAVDWVMMQSCFGFHFMLVLEKQEKYDGHQQFFAIVQLIGTRKQAENFAYRLELNGHRRRLTWEATPRSIHEGIATAIMNSDCLVFDTSIAQLFAENGNLGINVTISMC
notes: human Siah1 without the RING domain, amino acids 91-282 of UniProt Q8IUQ4 (the results say residues 90-282); theoretical mass of a monomer 21,897 Da; The 15N-labelled form was used in the NMR experiment and the unlabelled form in gel filtration; it says only 'a similar protocol to that for PEG3-SCAN'; also called E3 ubiquitin-protein ligase Siah1; 15N-labeled Siah1; source: E. coli, purified by a …

Target: the molecule itself
Assay: SEC; gel filtration of the single purified protein, Superdex 75 16/60 calibrated with molecular weight standards; 50 mM Tris-HCl pH 7.5, 150 mM NaCl

Protein	stoichiometry N
B1	2
B2	2
